Laboratory results: IntAct's records for PubMed 11583623

B1: Serine protease HTRA2, mitochondrial (Homo sapiens), O43464 (parent)
chain: MAAPRAGRGAGWSLRAWRALGGIRWGRRPRLTPDLRALLTSGTSDPRARVTYGTPSLWARLSVGVTEPRACLTSGTPGPRAQLTAVTPDTRTREASENSGTRSRAWLAVALGAGGAVLLLLWGGGRGPPAVLAAVPSPPPASPRSQYNFIADVVEKTAPAVVYIEILDRHPFLGREVPISNGSGFVVAADGLIVTNAHVVADRRRVRVRLLSGDTYEAVVTAVDPVADIATLRIQTKEPLPTLPLGRSADVRQGEFVVAMGSPFALQNTITSGIVSSAQRPARDLGLPQTNVEYIQTDAAIDFGNSGGPLVNLDGEVIGVNTMKVTAGISFAIPSDRLREFLHRGEKKNSSSGISGSQRRYIGVMMLTLSPSILAELQLREPSFPDVQHGVLIHKVILGSPAHRAGLRPGDVILAIGEQMVQNAEDVYEAVRTQSQLAVQIRRGRETLTLYVTPEVTE

Variants of: B1
Conditions: with xiap_human XIAP

effect of a mutation on the interaction | Variant
disrupting interaction | A134M
